Assay [1] addresses T1, C-terminally Halo-tagged full-length zyxin (zyxin-Halo), Q15942.
T1 chain: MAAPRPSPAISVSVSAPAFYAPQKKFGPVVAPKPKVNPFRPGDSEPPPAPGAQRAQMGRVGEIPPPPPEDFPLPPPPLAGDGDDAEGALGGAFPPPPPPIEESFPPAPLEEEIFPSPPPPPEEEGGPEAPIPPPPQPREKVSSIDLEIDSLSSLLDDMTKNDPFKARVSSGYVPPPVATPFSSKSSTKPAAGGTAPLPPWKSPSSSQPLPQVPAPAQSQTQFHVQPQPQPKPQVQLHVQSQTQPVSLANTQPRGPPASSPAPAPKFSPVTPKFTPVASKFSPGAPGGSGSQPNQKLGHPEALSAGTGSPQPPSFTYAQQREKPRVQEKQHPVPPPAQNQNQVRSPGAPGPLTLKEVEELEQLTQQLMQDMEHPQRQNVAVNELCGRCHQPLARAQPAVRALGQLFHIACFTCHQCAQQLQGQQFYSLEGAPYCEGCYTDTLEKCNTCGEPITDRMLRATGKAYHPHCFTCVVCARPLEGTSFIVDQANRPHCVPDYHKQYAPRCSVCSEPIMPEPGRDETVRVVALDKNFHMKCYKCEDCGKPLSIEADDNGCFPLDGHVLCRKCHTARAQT
Description: force reconstitution TIRF assay. The following applies: chain shown with the change; images were acquired every 1 s; parent: est. 490; read off a plot.

The target in assay [2] is T2, zyxin mutant deficient in recruiting VASP, F(75, 97, 108, 118)A, Halo-tagged, Q15942.
T2 chain: T1 chain with F71A, F93A, F104A, F114A
Description: force reconstitution TIRF assay. The conditions noted are these: chain shown with the change; images were acquired every 1 s; parent: est. 490; read off a plot.

Changes are numbered by the printed parent chain. In names and notes the source's numbering stands.

B1: C-terminally Halo-tagged VASP (VASP-Halo), P50552 L226A; I231A; L235A; R273E; R274E; R275E; K276E (protein)
chain: SETVICSSRATVMLYDDGNKRWLPAGTGPQAFSRVQIYHNPTANSFRVVGRKMQPDQQVVINCAIVRGVKYNQATPNFHQWRDARQVWGLNFGSKEDAAQFAAGMASALEALEGGGPPPPPALPTWSVPNGPSPEEVEQQKRQQPGPSEHIERRVSNAGGPPAPPAGGPPPPPGPPPPPGPPPPPGLPPSGVPAAAHGAGGGPPPAPPLPAAQGPGGGGAGAPGAAAAAAGAKARKVSKQEEASGGPTAPKAESGRSGGGGLMEEMNAMLAEEEEATQVGEKTPKDESANQEEPEARVPAQSESVRRPWEKNSTTLPRMKSSSSVTTSETQPCTPSSSDYSDLQRVKQELLEEVKKELQKVKEEIIEAFVQELRKRGSP
Regarding B1, the other: Number of Binding Events (mean) in assay [1] is 180.

B2: m6; m1 VASP:L226A; VASP:I231A; VASP:L235A; VASP:R273E; VASP:R274E; VASP:R275E; VASP:K276E; zyxin:F75A; zyxin:F97A; zyxin:F108A; zyxin:F118A (protein)
chain: B1 chain
Consider B2, for which the other: Number of Binding Events (mean) in assay [2] turned out to be 30.

These data come from article doi:10.1101/2024.05.17.594765.
